Biological target: T1, rPfTPx-1 (thioredoxin peroxidase 1) (Plasmodium falciparum, UniProt Q8IL80 1-195)
T1 sequence: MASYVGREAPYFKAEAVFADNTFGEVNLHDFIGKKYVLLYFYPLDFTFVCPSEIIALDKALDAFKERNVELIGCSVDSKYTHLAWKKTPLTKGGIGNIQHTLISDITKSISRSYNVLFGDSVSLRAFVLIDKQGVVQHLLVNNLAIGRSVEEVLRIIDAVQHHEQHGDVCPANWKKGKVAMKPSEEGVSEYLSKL
Experiment: EMSA

B1: IntPE (PE) RNA probe, fluorescent (ssRNA)
RNA: AUCACAUACAUAUACACAAACACUUAUACAUACACAUA
- binding result: binds

Source: publication PMC9388093
